Measured values taken from US20080021198.
Positions count from the first letter of the chain named. Names may count otherwise.

B1: trypsin-resistant structural core of PME (protein)
chain 1: RDFSPVPWSQYFESMEDVEVENETGKDTFRVYKSGSEGPVLLLLHGGGHSALSWAVFTAAIISRVQCRIVALDLRSHGETKVKNPEDLSAETMAKDVGNVVEAMYGDLPPPIMLIGHSMGGAIAVHTASSNLVPSLLGLCMIDVVEGTAMDALNSMQNFLRGRPKTFKSLENAIEWSVKSGQIRNLESARVSMVGQVKQCEGITSPEGSK
chain 2: KEDDMETKKDHPYTWRIELAKTEKYWDGWFRGLSNLFLSCPIPKLLLLAGVDRLDKDLTIGQMQGKFQMQVLPQCGHAVHEDAPDKVAEAVATFLIRHRFAEPIGGFQCVFPGC
B2: PME S156A mutant (protein)
chain: MSALEKSMHLGRLPSRPPLPGSGGSQSGAKMRMGPGRKRDFSPVPWSQYFESMEDVEVENETGKDTFRVYKSGSEGPVLLLLHGGGHSALSWAVFTAAIISRVQCRIVALDLRSHGETKVKNPEDLSAETMAKDVGNVVEAMYGDLPPPIMLIGHAMGGAIAVHTASSNLVPSLLGLCMIDVVEGTAMDALNSMQNFLRGRPKTFKSLENAIEWSVKSGQIRNLESARVSMVGQVKQCEGITSPEGSKSIVEGIIEEEEEDEEGSESISKRKKEDDMETKKDHPYTWRIELAKTEKYWDGWFRGLSNLFLSCPIPKLLLLAGVDRLDKDLTIGQMQGKFQMQVLPQCGHAVHEDAPDKVAEAVATFLIRHRFAEPIGGFQCVFPGC
B3: full-length PP2A methyl esterase (PME) (protein)
chain: B2 chain with A156S
B4: PME S156C mutant (protein)
chain: B2 chain with A156C
B5: PME S156T mutant (protein)
chain: B2 chain with A156T

Target: methylated PP2A A-C hetero-dimer (bovine brain, methylated in vitro with PMT and H^3-SAM), Q32PI5
Sequence (Q32PI5 2-589, chain 1 of 2): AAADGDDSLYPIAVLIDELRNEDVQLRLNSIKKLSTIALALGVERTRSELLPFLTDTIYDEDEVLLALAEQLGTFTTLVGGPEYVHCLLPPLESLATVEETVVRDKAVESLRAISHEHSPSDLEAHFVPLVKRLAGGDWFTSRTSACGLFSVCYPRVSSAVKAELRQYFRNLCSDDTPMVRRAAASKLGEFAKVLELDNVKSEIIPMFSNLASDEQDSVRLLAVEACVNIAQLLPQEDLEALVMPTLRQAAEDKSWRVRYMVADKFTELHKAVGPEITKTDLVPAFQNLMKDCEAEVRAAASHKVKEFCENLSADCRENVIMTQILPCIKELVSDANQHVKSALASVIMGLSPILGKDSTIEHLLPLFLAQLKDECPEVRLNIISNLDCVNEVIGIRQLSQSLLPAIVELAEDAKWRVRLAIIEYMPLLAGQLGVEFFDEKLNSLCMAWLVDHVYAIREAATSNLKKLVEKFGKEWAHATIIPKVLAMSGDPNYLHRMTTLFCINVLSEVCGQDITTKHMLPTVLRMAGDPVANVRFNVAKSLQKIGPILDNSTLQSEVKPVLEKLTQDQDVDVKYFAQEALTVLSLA
Sequence (chain, as listed by the source, chain 2 of 2): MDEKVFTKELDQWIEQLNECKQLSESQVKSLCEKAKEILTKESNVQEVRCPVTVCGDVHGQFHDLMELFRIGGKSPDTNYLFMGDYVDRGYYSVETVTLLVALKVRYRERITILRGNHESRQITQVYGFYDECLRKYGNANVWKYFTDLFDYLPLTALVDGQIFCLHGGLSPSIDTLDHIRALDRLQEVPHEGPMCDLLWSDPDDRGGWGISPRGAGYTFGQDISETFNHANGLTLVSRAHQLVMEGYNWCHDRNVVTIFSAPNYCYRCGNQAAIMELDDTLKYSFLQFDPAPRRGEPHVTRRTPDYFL

Protein	methyl esterase activity (release of H^3-methanol)	enzyme activity (methyl esterase, release of H^3-methanol)
B1	the PME core exhibits a similar methyl esterase activity to that of the full-length PME	
B2		mutation of Ser156 to alanine completely abolished the enzyme activity
B3	the PME core exhibits a similar methyl esterase activity to that of the full-length PME	
B4		mutation to threonine and cysteine retained 10% and 40% of the enzyme activity, respectively
B5		mutation to threonine and cysteine retained 10% and 40% of the enzyme activity, respectively
